# Assay results taken from patent US20190359687A1 (Bayer, published 2019).
# Substitutions are numbered along the chain they refer to.
# T1: Rhesus monkey glycophorin A on Rhesus monkey red blood cells (Rhesus monkey, UniProt A0A1D5Q349 20-150)
# T1 construct: whole, on cells; also called Rhesus RBC; monkey GPA
# T1 sequence: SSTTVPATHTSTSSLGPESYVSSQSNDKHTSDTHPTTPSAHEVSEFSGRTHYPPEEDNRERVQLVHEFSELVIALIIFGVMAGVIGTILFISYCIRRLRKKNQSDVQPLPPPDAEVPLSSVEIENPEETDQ
# T2: human glycophorin A in the red blood cell membrane (human, UniProt P02724 20-150)
# T2 construct: whole, on cells; used for intact RBC, isolated RBC membranes and transfected cells; the assay field tells which; also called GPA; hGPA
# T2 sequence (looked up): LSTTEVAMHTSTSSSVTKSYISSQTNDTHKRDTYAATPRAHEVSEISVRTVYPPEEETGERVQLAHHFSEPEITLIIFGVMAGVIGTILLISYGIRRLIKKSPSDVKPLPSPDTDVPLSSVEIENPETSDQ
# B1: 6C12 scFv-Fc (Fc fusion)
# scFv: RVQLQQSGAELARPGASVKMSCKASGYTFTTYTIHWVKQKTGQGLEWIGYINPSSDYTRYNPKFKDKATLTTDKSSSTAYMKLNSLASDDSAVYYCQTGTRDYWGQGTTLTVSSGGGGSGGGGSGGGGSQIVLTQSPPIMSASPGEKVTMTCSAASSVSYIYWFQQKPGTSPKLWIYSTSTLPSGVPTRFSGSGSGTSYSLTISRMEAEDAATYYCHQRNSFPFTFGSGTKLEIRGGGGAGGGGCKPCICTVPEVSSVFIFPPKPKDVLTITLTPKVTCVVVDISKDDPEVQFSWFVDDVEVHTAQTQPREEQFNSTFRSVSELPIMHQDWLNGKEFKCRVNSAAFPAPIEKTISKTKGRPKAPQVYTIPPPKEQMAKDKVSLTCMITDFFPEDITVEWQWNGQPAENYKNTQPIMDTDGSYFVYSKLNVQKSNWEAGNTFTCSVLHEGLHNHHTEKSLSHSPGK
# notes: scFv fused to a mouse Fc fragment; printed order VH-linker-VL-Fc
# B2: 13G7 scFv-Fc (Fc fusion)
# scFv: RVQLQQSGAELARPGASVKMSCKASGYTFTNYAMHWVKQRPGQGLEWIGYINPKSDNTNYNQKFKDKATLTTDKSSATAYMQLSSLTSDDSAVYYCQTGTRDYWGQGTTLTVSSGGGGSGGGGSGGGGSHIVLTQSPAIMSASPGEKVTIFCSASSSITYVYWFQQKPGTSPKLWIYSTSSLPSGVPARFSGSGSGTSYSLTISRMEAEDAATYYCHQRNSYPFTFGSGTKLEIKGGGGAGGGGCKPCICTVPEVSSVFIFPPKPKDVLTITLTPKVTCVVVDISKDDPEVQFSWFVDDVEVHTAQTQPREEQFNSTFRSVSELPIMHQDWLNGKEFKCRVNSAAFPAPIEKTISKTKGRPKAPQVYTIPPPKEQMAKDKVSLTCMITDFFPEDITVEWQWNGQPAENYKNTQPIMDTDGSYFVYSKLNVQKSNWEAGNTFTCSVLHEGLHNHHTEKSLSHSPGK
# notes: as m18
# B3: 12C6 scFv-Fc (Fc fusion)
# scFv: QVQLQQSGAELARPGASVKMSCKASGYTFTRYSMHWVKQRPGQGLEWIGYINPGTYSTNYNQKFKDRATLTADKSSSTAYMQLNSLTSEDSAVYYCQTGTRDYWGQGTTLTVSSGGGGSGGGGSGGGGSQIVLTQSPPIMSASPGEKVTITCSAASSVSYIYWFQQKPGTSPKLWIYSTSSLPSGVPTRFSGSGSGTSYSLTISRMEAEDAATYYCHQRSSYPFTFGSGTKLEIRGGGGAGGGGCKPCICTVPEVSSVFIFPPKPKDVLTITLTPKVTCVVVDISKDDPEVQFSWFVDDVEVHTAQTQPREEQFNSTFRSVSELPIMHQDWLNGKEFKCRVNSAAFPAPIEKTISKTKGRPKAPQVYTIPPPKEQMAKDKVSLTCMITDFFPEDITVEWQWNGQPAENYKNTQPIMDTDGSYFVYSKLNVQKSNWEAGNTFTCSVLHEGLHNHHTEKSLSHSPGK
# notes: as m18
# B4: 10F1 scFv-Fc (Fc fusion)
# scFv: B3 scFv with Q5L, K19R, M20I, S33A, Y56F
# notes: as m18
# B5: 8F9 scFv-Fc (Fc fusion)
# scFv: QVQLQQSGAELARPGASVKMSCKASGYTFTSYSIHWIKQRPGQSLEWIGYINPNSDYANYNQKFKDKATLTTDKSSTTAYMQLSSLTTDDSAVYYCQTGTRDYWGQGTTLTVSSGGGGSGGGGSGGGGSHIVLTQSPAIMSASPGEKVTIICSARSSVSYMYWFQQKPGTSPKLWIYATSSLPSGVPARFSGSGSGTSYSLTISRMEAEDAATYYCHQRSSYPYTFGSGTKLEIKGGGGAGGGGCKPCICTVPEVSSVFIFPPKPKDVLTITLTPKVTCVVVDISKDDPEVQFSWFVDDVEVHTAQTQPREEQFNSTFRSVSELPIMHQDWLNGKEFKCRVNSAAFPAPIEKTISKTKGRPKAPQVYTIPPPKEQMAKDKVSLTCMITDFFPEDITVEWQWNGQPAENYKNTQPIMDTDGSYFVYSKLNVQKSNWEAGNTFTCSVLHEGLHNHHTEKSLSHSPGK
# notes: as m18
# B6: 7G4 scFv-Fc (Fc fusion)
# scFv: QVQLKESGPGLVAPSQSLSITCTVSGFSLTRFGISWVRQPPGKGLEWMGVIWGDGSTDYHSALISRLSITKDNSKSQVFFRLNSLQSDDSATYYCARSFGMDYWGQGTSVTVSSGGGGSGGGGSGGGGSNIMMTQSPSSLAVSAGEKVTMSCKSSQSILNSSNQKNYLAWYQQKPGQSPKLLIYWASTRESGVPDRFTGSGSGTDFTLTISSVQAEDLAVYYCHQYFSSRTFGGGTKLEIKGGGGAGGGGCKPCICTVPEVSSVFIFPPKPKDVLTITLTPKVTCVVVDISKDDPEVQFSWFVDDVEVHTAQTQPREEQFNSTFRSVSELPIMHQDWLNGKEFKCRVNSAAFPAPIEKTISKTKGRPKAPQVYTIPPPKEQMAKDKVSLTCMITDFFPEDITVEWQWNGQPAENYKNTQPIMDTDGSYFVYSKLNVQKSNWEAGNTFTCSVLHEGLHNHHTEKSLSHSPGK
# notes: as m18
# B7: Hu6C12-1 (antibody, V domains shown)
# VH: EVQLVQSGAEVKKPGASVKVSCKASGYTFTTYTIHWVRQAPGQGLEWMGYINPSSDYTRYNPKFKDRVTMTTDTSTSTAYMELRSLRSDDTAVYYCQRGTRDYWGQGTTVTVSS
# VL: DIQLTQSPSFLSASVGDRVTITCSAASSVSYIYWYQQKPGKAPKLLIYSTSTLPSGVPSRFSGSGSGTEFTLTISSLQPEDFATYYCHQRNSFPFTFGQGTKLEIK
# notes: IgG format; VH.1a + Vk.1
# B8: Hu6C12-4 (antibody, V domains shown)
# VH: B7 VH with M70L
# VL: B7 VL
# notes: IgG format; VH.1d + Vk.1
# B9: Hu6C12-9 (antibody, V domains shown)
# VH: B7 VH with Q97A
# VL: B7 VL with F70Y
# notes: IgG format; VH.1 + Vk.1a
# B10: Hu6C12-10 (antibody, V domains shown)
# VH: B7 VH
# VL: B7 VL with F70Y
# notes: IgG format; VH.1a + Vk.1a
# B11: Hu6C12-17 (antibody, V domains shown)
# VH: B7 VH with Q97A
# VL: B7 VL with Y35F, F70Y
# notes: IgG format; VH.1 + Vk.1b
# B12: Hu6C12-18 (antibody, V domains shown)
# VH: B7 VH
# VL: B7 VL with Y35F, F70Y
# notes: IgG format; VH.1a + Vk.1b
# Molecular target: T3, Cynomolgus monkey glycophorin A on Cynomolgus monkey red blood cells (Cynomolgus monkey)
# T3 construct: whole, on cells; also called Cyno RBC; Cyno GPA
# Assay: FACS, Cyno #3 RBC
row,FACS signal,Binder
1,602 Flourescent units,B1
2,632 Flourescent units,B2
3,580 Flourescent units,B3
4,647 Flourescent units,B4
5,582 Flourescent units,B5
6,1 Flourescent units,B6

# Molecular target: T3, Cynomolgus monkey glycophorin A on …
# Assay: FACS, RBC Cy01
# Procedure: (§1) The binding of the humanized variants to intact red blood cells (RBC) from humans (Hu01 to 03; 3 individuals), Rhesus monkey (Rh01 to 03; 3 individuals) and Cynomolgus monkey (Cy01 to 02; 2 individuals) was measured by fluorescence activated cell sorting (FACS).
row,fluorescence intensity,Binder
1,742,B7
2,884,B8
3,680,B9
4,872,B10
5,104,B11
6,741,B12

# Molecular target: T3, Cynomolgus monkey glycophorin A on …
# Assay: FACS, Cyno #1 RBC
row,FACS signal,Binder
1,2 Flourescent units,B1
2,2 Flourescent units,B2
3,2 Flourescent units,B3
4,2 Flourescent units,B4
5,2 Flourescent units,B5
6,1 Flourescent units,B6

# Molecular target: T1, Rhesus monkey glycophorin A on Rhesus …
# Assay: FACS, RBC Rh03
# Procedure: as §1
row,fluorescence intensity,Binder
1,1140,B7
2,1340,B8
3,1050,B9
4,1310,B10

# Molecular target: T2, human glycophorin A in the red blood …
# Assay: FACS, RBC Hu02
# Procedure: as §1
row,fluorescence intensity,Binder
1,3,B7
2,3,B8
3,3,B9
4,3,B10
5,3,B11
6,3,B12

# Molecular target: T3, Cynomolgus monkey glycophorin A on …
# Assay: FACS, Cyno #2 RBC
row,FACS signal,Binder
1,876 Flourescent units,B1
2,981 Flourescent units,B2
3,956 Flourescent units,B3
4,842 Flourescent units,B4
5,761 Flourescent units,B5
6,1 Flourescent units,B6

# Molecular target: T2, human glycophorin A in the red blood …
# Assay: FACS, Human RBC
row,FACS signal,Binder
1,2040 Flourescent units,B1
2,2760 Flourescent units,B2
3,2900 Flourescent units,B3
4,2980 Flourescent units,B4
5,2340 Flourescent units,B5
6,1410 Flourescent units,B6

# Molecular target: T3, Cynomolgus monkey glycophorin A on …
# Assay: FACS, RBC Cy02
# Procedure: as §1
row,fluorescence intensity,Binder
1,801,B7
2,989,B8
3,756,B9
4,973,B10
5,127,B11
6,876,B12

# Molecular target: T1, Rhesus monkey glycophorin A on Rhesus …
# Assay: FACS, Rhesus RBC
row,FACS signal,Binder
1,1450 Flourescent units,B1
2,1860 Flourescent units,B2
3,1860 Flourescent units,B3
4,2070 Flourescent units,B4
5,1770 Flourescent units,B5
6,1 Flourescent units,B6

# Molecular target: T1, Rhesus monkey glycophorin A on Rhesus …
# Assay: FACS, RBC Rh02
row,fluorescence intensity,Binder
1,1120,B7
2,1320,B8
3,1060,B9
4,1310,B10

# Molecular target: T4, dog red blood cells (dog)
# T4 construct: also called dog RBC
# Assay: FACS, Dog RBC
row,FACS signal,Binder
1,1 Flourescent units,B1
2,1 Flourescent units,B2
3,1 Flourescent units,B3
4,1 Flourescent units,B4
5,1 Flourescent units,B5
6,1 Flourescent units,B6

# Molecular target: T2, human glycophorin A in the red blood …
# Assay: FACS, IgG
# Procedure: as §1
row,binding result,Binder
1,no binding,B7
2,no binding,B8
3,no binding,B9
4,no binding,B10
5,no binding,B11
6,no binding,B12

# Molecular target: T2, human glycophorin A in the red blood …
# Assay: FACS, RBC Hu01
# Procedure: as §1
row,fluorescence intensity,Binder
1,3,B7
2,3,B8
3,3,B9
4,3,B10
5,3,B11
6,3,B12

# Molecular target: T1, Rhesus monkey glycophorin A on Rhesus …
# Assay: FACS, RBC Rh01
# Procedure: as §1
row,fluorescence intensity,Binder
1,1190,B7
2,1070,B8
3,1060,B9
4,1410,B10

# Molecular target: T2, human glycophorin A in the red blood …
# Assay: FACS, RBC Hu03
# Procedure: as §1
row,fluorescence intensity,Binder
1,2,B7
2,2,B8
3,2,B9
4,2,B10
5,2,B11
6,2,B12
